Values quoted from earlier work in paper PMC5419744.

Molecular target: DNA polymerase III subunit tau (Escherichia coli) (UniProt P06710)
Sequence of UniProt P06710 (P06710 2-643): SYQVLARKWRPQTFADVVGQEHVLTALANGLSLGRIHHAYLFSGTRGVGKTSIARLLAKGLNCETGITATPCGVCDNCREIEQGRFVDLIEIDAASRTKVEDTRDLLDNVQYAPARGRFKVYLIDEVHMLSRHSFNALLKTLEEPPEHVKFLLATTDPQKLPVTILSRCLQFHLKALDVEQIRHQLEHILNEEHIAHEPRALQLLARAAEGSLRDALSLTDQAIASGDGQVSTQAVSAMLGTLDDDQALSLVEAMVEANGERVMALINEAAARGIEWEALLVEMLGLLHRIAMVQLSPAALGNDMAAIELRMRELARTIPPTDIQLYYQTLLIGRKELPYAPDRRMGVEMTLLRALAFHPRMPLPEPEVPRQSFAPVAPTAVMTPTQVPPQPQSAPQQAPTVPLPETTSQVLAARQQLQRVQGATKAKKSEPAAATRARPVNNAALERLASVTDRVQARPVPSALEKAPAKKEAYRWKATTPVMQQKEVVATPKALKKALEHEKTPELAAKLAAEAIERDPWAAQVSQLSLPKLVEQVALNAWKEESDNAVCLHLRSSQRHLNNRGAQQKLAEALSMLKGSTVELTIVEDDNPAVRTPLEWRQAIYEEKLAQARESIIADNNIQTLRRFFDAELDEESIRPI

- Kd: 0.3 nM
Substance: DNA polymerase III subunit alpha (from UniProt P10443)
